Tested on: peptide library, one residue held at a place counted from the S/T acceptor
Test: relative phosphorylation of the sub-library (ratio to the mean residue at this position); higher = residue favoured
Summary of the method: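 In 384-well plates, purified recombinant kinases (human or orthologue constructs) were incubated for 90 min under kinase-specific conditions with 50 μM biotinylated degenerate peptide sub-libraries and 50 μM ATP spiked with γ-32P-ATP. Each sub-library fixed a single residue at one position around a central Ser/Thr. Relative sub-library phosphorylation, measured by phosphorimaging and densitometry of streptavidin membrane spots, is given as a ratio to the mean residue at that position.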

Chain of AURKC, construct: Full length, human (Q9UQB9 whole entry, looked up): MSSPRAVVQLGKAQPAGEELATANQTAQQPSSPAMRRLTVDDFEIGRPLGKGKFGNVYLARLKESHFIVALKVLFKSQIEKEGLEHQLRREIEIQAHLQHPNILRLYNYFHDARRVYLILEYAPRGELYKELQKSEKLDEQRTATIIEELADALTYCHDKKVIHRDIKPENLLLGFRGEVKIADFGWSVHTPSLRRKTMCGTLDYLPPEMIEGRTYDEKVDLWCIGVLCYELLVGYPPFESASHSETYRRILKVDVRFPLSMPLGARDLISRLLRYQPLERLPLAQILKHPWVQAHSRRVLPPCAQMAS
Chain of CAMK1G, construct: aa4-312, human (Q96NX5 4-312, looked up): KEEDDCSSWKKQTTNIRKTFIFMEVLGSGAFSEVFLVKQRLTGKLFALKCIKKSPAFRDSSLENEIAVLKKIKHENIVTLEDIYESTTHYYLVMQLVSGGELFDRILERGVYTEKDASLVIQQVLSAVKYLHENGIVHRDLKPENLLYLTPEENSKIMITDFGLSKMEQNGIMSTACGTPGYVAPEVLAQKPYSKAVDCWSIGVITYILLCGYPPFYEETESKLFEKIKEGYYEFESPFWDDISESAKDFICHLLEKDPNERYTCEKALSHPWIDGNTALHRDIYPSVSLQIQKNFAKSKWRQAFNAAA

CAMK1G, construct: aa4-312, human (from UniProt Q96NX5)
relative phosphorylation
Details | at +1 | at +2 | at +3 | at +4 | at -1 | at -2 | at -3 | at -4 | at -5
A fixed | 0.642 | 0.76 | 0.621 | 0.551 | 0.799 | 0.862 | 0.549 | 0.716 | 0.628
D fixed | 0.415 | 0.664 | 0.754 | 0.687 | 0.868 | 0.426 | 0.285 | 0.428 | 0.451
E fixed | 0.379 | 0.584 | 0.709 | 0.651 | 0.562 | 0.421 | 0.274 | 0.548 | 0.424
F fixed | 2.19 | 0.959 | 1.5 | 1.69 | 0.634 | 0.743 | 0.545 | 0.916 | 1.01
G fixed | 0.693 | 0.541 | 0.763 | 0.665 | 0.98 | 0.927 | 0.395 | 0.754 | 0.628
H fixed | 0.691 | 1.37 | 1.2 | 0.846 | 0.991 | 0.867 | 0.602 | 1.08 | 0.879
I fixed | 0.442 | 1.1 | 0.904 | 1.09 | 0.554 | 0.413 | 0.413 | 0.913 | 1.26
K fixed | 2.37 | 1.51 | 1.22 | 1.02 | 2.43 | 1.64 | 1.95 | 2.49 | 1.38
L fixed | 0.51 | 1.09 | 1.08 | 1.99 | 0.684 | 0.554 | 0.506 | 0.979 | 2.03
M fixed | 0.931 | 0.968 | 1.01 | 1.43 | 0.723 | 1.02 | 0.68 | 0.936 | 1.29
N fixed | 0.894 | 1.18 | 1.41 | 0.972 | 1.71 | 1.03 | 0.48 | 0.833 | 0.656
P fixed | 0.305 | 0.403 | 0.435 | 0.747 | 1.17 | 0.386 | 0.343 | 0.496 | 0.933
Q fixed | 1.27 | 0.908 | 0.969 | 0.986 | 1.05 | 2.24 | 0.777 | 0.936 | 0.84
R fixed | 3.15 | 1.78 | 1.53 | 1.1 | 1.97 | 3.14 | 7.64 | 2.06 | 2.08
V fixed | 0.463 | 0.892 | 0.642 | 0.67 | 0.675 | 0.483 | 0.366 | 0.754 | 0.818
W fixed | 0.896 | 1.08 | 1.28 | 1.05 | 0.575 | 1.13 | 0.617 | 1.17 | 0.692
Y fixed | 0.756 | 1.22 | 0.981 | 0.856 | 0.63 | 0.712 | 0.581 | 0.991 | 0.982
pThr fixed | 0.933 | 1.57 | 0.938 | 1.1 | 0.856 | 0.667 | 0.447 | 0.759 | 0.579
pTyr fixed | 0.717 | 4.89 | 1.31 | 0.992 | 0.749 | 0.652 | 0.486 | 0.704 | 0.774

AURKC, construct: Full length, human (from UniProt Q9UQB9)
relative phosphorylation
Details | at +1 | at +2 | at +3 | at +4 | at -1 | at -2 | at -3 | at -4 | at -5
A fixed | 1.01 | 1.38 | 1.08 | 0.973 | 0.816 | 0.333 | 0.832 | 1.25 | 1.46
D fixed | 0.814 | 0.611 | 0.589 | 0.957 | 0.459 | 0.179 | 0.421 | 0.58 | 0.651
E fixed | 0.755 | 0.417 | 0.466 | 0.681 | 0.394 | 0.167 | 0.36 | 0.562 | 0.554
F fixed | 1.06 | 0.746 | 0.893 | 0.763 | 0.505 | 0.206 | 0.451 | 0.634 | 0.678
G fixed | 1.37 | 2.03 | 1.6 | 1.25 | 0.672 | 0.399 | 1.06 | 1.33 | 1.63
H fixed | 1.06 | 1.66 | 1.43 | 1.1 | 0.974 | 0.399 | 1.1 | 0.955 | 1.06
I fixed | 0.852 | 0.592 | 0.605 | 0.684 | 0.406 | 0.25 | 0.402 | 0.623 | 0.63
K fixed | 0.89 | 0.853 | 1.13 | 1.23 | 2.57 | 2.63 | 2.51 | 2.06 | 2.15
L fixed | 1.15 | 0.694 | 0.863 | 0.792 | 0.811 | 0.251 | 0.392 | 0.601 | 0.632
M fixed | 1.57 | 0.705 | 0.719 | 0.803 | 0.727 | 0.248 | 0.52 | 0.741 | 0.664
N fixed | 1.29 | 1.23 | 1.25 | 1.2 | 0.73 | 0.304 | 0.919 | 0.856 | 1.05
P fixed | 0.329 | 1.5 | 1.78 | 1.68 | 1.09 | 0.372 | 1.23 | 1.72 | 1.25
Q fixed | 1.16 | 0.975 | 1.03 | 1.35 | 1.09 | 0.529 | 0.803 | 0.96 | 0.767
R fixed | 1 | 0.962 | 1.08 | 1.13 | 3.72 | 10 | 4.34 | 2.18 | 1.47
V fixed | 0.669 | 0.686 | 0.625 | 0.901 | 0.495 | 0.213 | 0.432 | 0.59 | 0.804
W fixed | 1.08 | 1.03 | 0.961 | 0.859 | 0.526 | 0.233 | 0.674 | 0.69 | 0.852
Y fixed | 0.931 | 0.928 | 0.906 | 0.647 | 1.01 | 0.25 | 0.55 | 0.673 | 0.719
pThr fixed | 1.1 | 0.657 | 0.676 | 1.06 | 0.334 | 0.342 | 0.612 | 0.86 | 0.713
pTyr fixed | 0.648 | 0.502 | 0.631 | 0.801 | 0.398 | 0.209 | 0.52 | 0.629 | 0.535

Reference: the supplement of paper PMC9876800
